Source: IntAct's records for PubMed 19966800

Molecular target: caga_helpy cagA (UniProt P55980)
Sequence (P55980 whole entry): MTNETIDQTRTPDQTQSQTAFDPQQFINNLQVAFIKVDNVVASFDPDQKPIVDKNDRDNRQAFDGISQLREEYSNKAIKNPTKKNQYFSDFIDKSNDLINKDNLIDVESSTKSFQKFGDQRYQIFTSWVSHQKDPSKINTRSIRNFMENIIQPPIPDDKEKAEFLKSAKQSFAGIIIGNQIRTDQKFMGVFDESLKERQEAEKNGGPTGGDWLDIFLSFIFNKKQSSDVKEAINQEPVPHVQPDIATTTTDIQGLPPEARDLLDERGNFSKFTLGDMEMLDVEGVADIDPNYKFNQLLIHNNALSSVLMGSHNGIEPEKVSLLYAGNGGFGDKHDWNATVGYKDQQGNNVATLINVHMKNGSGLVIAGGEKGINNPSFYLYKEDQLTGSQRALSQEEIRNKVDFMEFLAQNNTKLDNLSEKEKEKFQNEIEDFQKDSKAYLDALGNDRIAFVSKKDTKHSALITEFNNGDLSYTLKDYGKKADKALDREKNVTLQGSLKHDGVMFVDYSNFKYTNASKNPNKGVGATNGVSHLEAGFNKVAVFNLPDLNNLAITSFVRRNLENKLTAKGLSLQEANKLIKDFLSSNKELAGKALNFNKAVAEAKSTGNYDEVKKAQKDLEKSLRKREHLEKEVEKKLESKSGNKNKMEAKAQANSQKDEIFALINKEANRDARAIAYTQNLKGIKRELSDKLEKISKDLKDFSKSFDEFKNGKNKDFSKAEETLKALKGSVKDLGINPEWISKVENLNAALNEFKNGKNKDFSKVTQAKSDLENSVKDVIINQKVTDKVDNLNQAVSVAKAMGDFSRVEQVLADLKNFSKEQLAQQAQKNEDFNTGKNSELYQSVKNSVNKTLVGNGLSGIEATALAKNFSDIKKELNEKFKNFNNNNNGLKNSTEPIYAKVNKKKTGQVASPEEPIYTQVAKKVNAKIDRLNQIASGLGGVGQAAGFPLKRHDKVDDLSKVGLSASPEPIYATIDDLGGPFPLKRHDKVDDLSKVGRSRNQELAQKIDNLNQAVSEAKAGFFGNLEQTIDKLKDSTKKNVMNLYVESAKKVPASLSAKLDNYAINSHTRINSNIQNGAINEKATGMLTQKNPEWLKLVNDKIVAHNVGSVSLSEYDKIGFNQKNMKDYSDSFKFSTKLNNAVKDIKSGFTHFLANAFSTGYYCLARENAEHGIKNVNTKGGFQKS

Substance: Serine/threonine-protein kinase MARK2 (Homo sapiens), Q7KZI7 E136G;F138G;D139G
- effect of a mutation on the interaction: disrupting interaction
